Data as given in patent publication US20210032299A1 (Eli Lilly, published 2021).
Starred links: 1 amine or outer side, 2 acyl side, 3 side chain; linkers in the order of their positions; H or OH if unused. Non-standard residues stand in square brackets, D forms with d. Groups on a side chain read outwards from the residue. No end group written: not given here. *: point of attachment. C20 diacid = O=C(O)CCCCCCCCCCCCCCCCCCC(=O)*; C18 diacid = O=C(O)CCCCCCCCCCCCCCCCC(=O)*; αMePhe(2-F) = C[C@](N)(Cc1ccccc1F)C(=O)O; γGlu = O=C(O)[C@H](CCC(=O)[*:2])N[*:1]; 4Pal = N[C@@H](Cc1ccncc1)C(=O)O; αMeL = CC(C)C[C@](C)(N)C(=O)O; Orn = NCCC[C@H](N)C(=O)O; AEEA = NCCOCCOCC(=O)O; Aib = CC(C)(N)C(=O)O

T1: human glucose-dependent insulinotropic peptide receptor (human, UniProt P48546 22-466)
T1 sequence (looked up): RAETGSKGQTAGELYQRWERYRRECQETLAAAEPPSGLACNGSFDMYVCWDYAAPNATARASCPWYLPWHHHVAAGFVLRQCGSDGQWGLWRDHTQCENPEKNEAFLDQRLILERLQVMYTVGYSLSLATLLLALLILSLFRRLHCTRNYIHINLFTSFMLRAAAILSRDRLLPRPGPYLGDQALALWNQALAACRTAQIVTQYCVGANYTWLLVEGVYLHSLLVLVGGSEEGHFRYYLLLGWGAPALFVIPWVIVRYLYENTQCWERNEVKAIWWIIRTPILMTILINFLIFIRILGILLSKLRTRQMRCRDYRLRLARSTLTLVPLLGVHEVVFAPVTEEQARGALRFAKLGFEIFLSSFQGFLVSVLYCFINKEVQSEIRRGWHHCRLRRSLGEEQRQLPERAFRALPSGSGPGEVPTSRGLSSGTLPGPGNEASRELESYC

T2: human glucose-dependent insulinotropic polypeptide (GIP) receptor (human, UniProt P48546 22-466)
T2 construct: whole, on cells; Assayed as crude membranes of stably transfected CHO cells; also called hGIPR; human GIP receptor
T2 sequence (looked up): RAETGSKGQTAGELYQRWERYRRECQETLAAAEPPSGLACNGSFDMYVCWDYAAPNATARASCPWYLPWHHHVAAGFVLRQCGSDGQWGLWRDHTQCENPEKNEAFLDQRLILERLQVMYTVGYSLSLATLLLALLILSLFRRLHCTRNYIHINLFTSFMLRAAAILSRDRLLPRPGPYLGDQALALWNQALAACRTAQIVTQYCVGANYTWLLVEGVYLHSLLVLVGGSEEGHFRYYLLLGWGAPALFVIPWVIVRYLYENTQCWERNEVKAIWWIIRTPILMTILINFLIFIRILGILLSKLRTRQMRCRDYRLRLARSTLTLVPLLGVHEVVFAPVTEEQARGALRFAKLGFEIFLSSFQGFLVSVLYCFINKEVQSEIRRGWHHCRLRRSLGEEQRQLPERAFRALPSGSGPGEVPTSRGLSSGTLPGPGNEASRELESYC


Experiments:
human GLP-1 receptor = human GLP-1 receptor (human, UniProt P43220 24-463); test: cell-based or functional assay
human glucagon receptor = human glucagon receptor (human, UniProt P47871 26-477); test: cell-based or functional assay
Chain of human glucagon receptor (P47871 26-477): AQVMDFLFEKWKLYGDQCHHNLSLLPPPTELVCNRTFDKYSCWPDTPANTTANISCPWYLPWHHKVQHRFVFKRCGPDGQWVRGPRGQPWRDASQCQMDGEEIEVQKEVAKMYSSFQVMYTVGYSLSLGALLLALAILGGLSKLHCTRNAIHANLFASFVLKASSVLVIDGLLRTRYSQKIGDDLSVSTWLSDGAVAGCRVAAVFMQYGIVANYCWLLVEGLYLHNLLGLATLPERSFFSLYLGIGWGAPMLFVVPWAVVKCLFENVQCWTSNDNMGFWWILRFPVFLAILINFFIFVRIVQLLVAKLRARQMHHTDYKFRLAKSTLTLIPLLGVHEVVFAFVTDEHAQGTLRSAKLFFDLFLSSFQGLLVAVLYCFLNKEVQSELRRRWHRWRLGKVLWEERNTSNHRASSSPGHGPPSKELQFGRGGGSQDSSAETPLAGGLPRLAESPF

[1] = molecular target: T1, human glucose-dependent insulinotropic …; test: cell-based or functional assay
[2] = molecular target: T2, human glucose-dependent insulinotropic …; test: SPA, displacement of [125I]-GIP from hGIPR membranes, 0.1% bacitracin
Procedure: The binding buffer contains 25 mM HEPES, pH 7.4, 2.5 mM CaCl₂, 1 mM MgCl₂, 0.1% (w/v) bacitracin, 0.003% (w/v) TWEEN®-20, and Roche Complete™ Protease Inhibitors without EDTA. […] Plates are sealed and mixed on a plate shaker (setting 6) for 1 minute and read with a PerkinElmer Trilux MicroBeta® scintillation counter after 2.5 to 12 hours of incubation/settling time at room temperature.
Data are analyzed using four-parameter (curve maximum, curve minimum, […], Hill slope) nonlinear regression routines (Genedata Screener, version 12.0.4, Genedata AG, Basal, Switzerland). […] Values for Kᵢ are reported as the geometric mean, with error expressed as the standard error of the mean (SEM) and n is equal to the number of independent replicates (determined in assays performed on different days). Geometric Means are calculated as follows: […]

Row | Binder | hGLP1R cAMP Rel EC50 (human GLP-1 receptor) | hGcgR cAMP Rel EC50 (human glucagon receptor) | hGIPR cAMP Rel EC50 [1] | Ki [2]
1 | Y[dA]EGTFISDYSILLDKIAQ[Aib]DFVNWK([AEEA-AEEA-γGlu-C18 diacid])LAQGPSSGAPPPS-NH2 (N-terminus assumed; SMILES CC[C@H](C)[C@H](NC(=O)[C@H](CCCCN)NC(=O)[C@H](CC(=O)O)NC(=O)[C@H](CC(C)C)NC(=O)[C@H](CC(C)C)NC(=O)[C@@H](NC(=O)[C@H](CO)NC(=O)[C@H](Cc1ccc(O)cc1)NC(=O)[C@H](CC(=O)O)NC(=O)[C@H](CO)NC(=O)[C@@H](NC(=O)[C@H](Cc1ccccc1)NC(=O)[C@@H](NC(=O)CNC(=O)[C@H](CCC(=O)O)NC(=O)[C@@H](C)NC(=O)[C@@H](N)Cc1ccc(O)cc1)[C@@H](C)O)[C@@H](C)CC)[C@@H](C)CC)C(=O)N[C@@H](C)C(=O)N[C@@H](CCC(N)=O)C(=O)NC(C)(C)C(=O)N[C@@H](CC(=O)O)C(=O)N[C@@H](Cc1ccccc1)C(=O)N[C@H](C(=O)N[C@@H](CC(N)=O)C(=O)N[C@@H](Cc1c[nH]c2ccccc12)C(=O)N[C@@H](CCCCNC(=O)COCCOCCNC(=O)COCCOCCNC(=O)CC[C@H](NC(=O)CCCCCCCCCCCCCCCCC(=O)O)C(=O)O)C(=O)N[C@@H](CC(C)C)C(=O)N[C@@H](C)C(=O)N[C@@H](CCC(N)=O)C(=O)NCC(=O)N1CCC[C@H]1C(=O)N[C@@H](CO)C(=O)N[C@@H](CO)C(=O)NCC(=O)N[C@@H](C)C(=O)N1CCC[C@H]1C(=O)N1CCC[C@H]1C(=O)N1CCC[C@H]1C(=O)N[C@@H](CO)C(N)=O)C(C)C) [Example 93, listing 1 of 2 here] | 884 nM | > 5000 nM | 0.00482 nM | –
2 | Y[Aib]EGTFISDYSI[αMeL]LD[Orn]IHQ[Aib]EFVE[4Pal]K([AEEA-AEEA-γGlu-C20 diacid])LEAGPSSGAPPPS-NH2 (N-terminus assumed; SMILES CC[C@H](C)[C@H](NC(=O)[C@H](CCCN)NC(=O)[C@H](CC(=O)O)NC(=O)[C@H](CC(C)C)NC(=O)[C@](C)(CC(C)C)NC(=O)[C@@H](NC(=O)[C@H](CO)NC(=O)[C@H](Cc1ccc(O)cc1)NC(=O)[C@H](CC(=O)O)NC(=O)[C@H](CO)NC(=O)[C@@H](NC(=O)[C@H](Cc1ccccc1)NC(=O)[C@@H](NC(=O)CNC(=O)[C@H](CCC(=O)O)NC(=O)C(C)(C)NC(=O)[C@@H](N)Cc1ccc(O)cc1)[C@@H](C)O)[C@@H](C)CC)[C@@H](C)CC)C(=O)N[C@@H](Cc1c[nH]cn1)C(=O)N[C@@H](CCC(N)=O)C(=O)NC(C)(C)C(=O)N[C@@H](CCC(=O)O)C(=O)N[C@@H](Cc1ccccc1)C(=O)N[C@H](C(=O)N[C@@H](CCC(=O)O)C(=O)N[C@@H](Cc1ccncc1)C(=O)N[C@@H](CCCCNC(=O)COCCOCCNC(=O)COCCOCCNC(=O)CC[C@H](NC(=O)CCCCCCCCCCCCCCCCCCC(=O)O)C(=O)O)C(=O)N[C@@H](CC(C)C)C(=O)N[C@@H](CCC(=O)O)C(=O)N[C@@H](C)C(=O)NCC(=O)N1CCC[C@H]1C(=O)N[C@@H](CO)C(=O)N[C@@H](CO)C(=O)NCC(=O)N[C@@H](C)C(=O)N1CCC[C@H]1C(=O)N1CCC[C@H]1C(=O)N1CCC[C@H]1C(=O)N[C@@H](CO)C(N)=O)C(C)C) [Example 122] | > 5000 nM | > 5000 nM | 0.01 nM | –
3 | Y[Aib]EGTFISDYSI[αMeL]LDKIHQ[Aib]DFVEYK([AEEA-AEEA-γGlu-C20 diacid])LEQGPSSGAPPPS-NH2 (N-terminus assumed; SMILES CC[C@H](C)[C@H](NC(=O)[C@H](CCCCN)NC(=O)[C@H](CC(=O)O)NC(=O)[C@H](CC(C)C)NC(=O)[C@](C)(CC(C)C)NC(=O)[C@@H](NC(=O)[C@H](CO)NC(=O)[C@H](Cc1ccc(O)cc1)NC(=O)[C@H](CC(=O)O)NC(=O)[C@H](CO)NC(=O)[C@@H](NC(=O)[C@H](Cc1ccccc1)NC(=O)[C@@H](NC(=O)CNC(=O)[C@H](CCC(=O)O)NC(=O)C(C)(C)NC(=O)[C@@H](N)Cc1ccc(O)cc1)[C@@H](C)O)[C@@H](C)CC)[C@@H](C)CC)C(=O)N[C@@H](Cc1c[nH]cn1)C(=O)N[C@@H](CCC(N)=O)C(=O)NC(C)(C)C(=O)N[C@@H](CC(=O)O)C(=O)N[C@@H](Cc1ccccc1)C(=O)N[C@H](C(=O)N[C@@H](CCC(=O)O)C(=O)N[C@@H](Cc1ccc(O)cc1)C(=O)N[C@@H](CCCCNC(=O)COCCOCCNC(=O)COCCOCCNC(=O)CC[C@H](NC(=O)CCCCCCCCCCCCCCCCCCC(=O)O)C(=O)O)C(=O)N[C@@H](CC(C)C)C(=O)N[C@@H](CCC(=O)O)C(=O)N[C@@H](CCC(N)=O)C(=O)NCC(=O)N1CCC[C@H]1C(=O)N[C@@H](CO)C(=O)N[C@@H](CO)C(=O)NCC(=O)N[C@@H](C)C(=O)N1CCC[C@H]1C(=O)N1CCC[C@H]1C(=O)N1CCC[C@H]1C(=O)N[C@@H](CO)C(N)=O)C(C)C) [Example 92] | > 5000 nM | > 5000 nM | 0.0191 nM | –
4 | Y[dA]EGTFISDYSILLDKIAQ[Aib]DFVNWK([AEEA-AEEA-γGlu-C18 diacid])LAQGPSSGAPPPS-NH2 (N-terminus assumed; SMILES CC[C@H](C)[C@H](NC(=O)[C@H](CCCCN)NC(=O)[C@H](CC(=O)O)NC(=O)[C@H](CC(C)C)NC(=O)[C@H](CC(C)C)NC(=O)[C@@H](NC(=O)[C@H](CO)NC(=O)[C@H](Cc1ccc(O)cc1)NC(=O)[C@H](CC(=O)O)NC(=O)[C@H](CO)NC(=O)[C@@H](NC(=O)[C@H](Cc1ccccc1)NC(=O)[C@@H](NC(=O)CNC(=O)[C@H](CCC(=O)O)NC(=O)[C@@H](C)NC(=O)[C@@H](N)Cc1ccc(O)cc1)[C@@H](C)O)[C@@H](C)CC)[C@@H](C)CC)C(=O)N[C@@H](C)C(=O)N[C@@H](CCC(N)=O)C(=O)NC(C)(C)C(=O)N[C@@H](CC(=O)O)C(=O)N[C@@H](Cc1ccccc1)C(=O)N[C@H](C(=O)N[C@@H](CC(N)=O)C(=O)N[C@@H](Cc1c[nH]c2ccccc12)C(=O)N[C@@H](CCCCNC(=O)COCCOCCNC(=O)COCCOCCNC(=O)CC[C@H](NC(=O)CCCCCCCCCCCCCCCCC(=O)O)C(=O)O)C(=O)N[C@@H](CC(C)C)C(=O)N[C@@H](C)C(=O)N[C@@H](CCC(N)=O)C(=O)NCC(=O)N1CCC[C@H]1C(=O)N[C@@H](CO)C(=O)N[C@@H](CO)C(=O)NCC(=O)N[C@@H](C)C(=O)N1CCC[C@H]1C(=O)N1CCC[C@H]1C(=O)N1CCC[C@H]1C(=O)N[C@@H](CO)C(N)=O)C(C)C) [Example 93, listing 2 of 2 here] | – | – | – | 0.043 nM
5 | Y[Aib]EGT[αMePhe(2-F)]ISDYSILLDKIHQ[Aib]DFVE[4Pal]K([AEEA-AEEA-γGlu-C20 diacid])LEQGPSSGAPPPS-NH2 (N-terminus assumed; SMILES CC[C@H](C)[C@H](NC(=O)[C@H](CO)NC(=O)[C@H](Cc1ccc(O)cc1)NC(=O)[C@H](CC(=O)O)NC(=O)[C@H](CO)NC(=O)[C@@H](NC(=O)[C@](C)(Cc1ccccc1F)NC(=O)[C@@H](NC(=O)CNC(=O)[C@H](CCC(=O)O)NC(=O)C(C)(C)NC(=O)[C@@H](N)Cc1ccc(O)cc1)[C@@H](C)O)[C@@H](C)CC)C(=O)N[C@@H](CC(C)C)C(=O)N[C@@H](CC(C)C)C(=O)N[C@@H](CC(=O)O)C(=O)N[C@@H](CCCCN)C(=O)N[C@H](C(=O)N[C@@H](Cc1c[nH]cn1)C(=O)N[C@@H](CCC(N)=O)C(=O)NC(C)(C)C(=O)N[C@@H](CC(=O)O)C(=O)N[C@@H](Cc1ccccc1)C(=O)N[C@H](C(=O)N[C@@H](CCC(=O)O)C(=O)N[C@@H](Cc1ccncc1)C(=O)N[C@@H](CCCCNC(=O)COCCOCCNC(=O)COCCOCCNC(=O)CC[C@H](NC(=O)CCCCCCCCCCCCCCCCCCC(=O)O)C(=O)O)C(=O)N[C@@H](CC(C)C)C(=O)N[C@@H](CCC(=O)O)C(=O)N[C@@H](CCC(N)=O)C(=O)NCC(=O)N1CCC[C@H]1C(=O)N[C@@H](CO)C(=O)N[C@@H](CO)C(=O)NCC(=O)N[C@@H](C)C(=O)N1CCC[C@H]1C(=O)N1CCC[C@H]1C(=O)N1CCC[C@H]1C(=O)N[C@@H](CO)C(N)=O)C(C)C)[C@@H](C)CC) [Example 121] | > 5000 nM | > 5000 nM | 0.0196 nM | –
